This is an account of results in patent US20190015483A1 (CSL BEHRING RECOMBINANT FACILITY, published 2019).

Where a chain is given by its changes, count along the chain named. Names and notes keep the numbering of the source.

T1: recombinant Factor VIII (CSL627, rVIII-SingleChain) (Homo sapiens (Human), UniProt P00451 20-2351)
T1 construct: also called FVIII
T1 sequence: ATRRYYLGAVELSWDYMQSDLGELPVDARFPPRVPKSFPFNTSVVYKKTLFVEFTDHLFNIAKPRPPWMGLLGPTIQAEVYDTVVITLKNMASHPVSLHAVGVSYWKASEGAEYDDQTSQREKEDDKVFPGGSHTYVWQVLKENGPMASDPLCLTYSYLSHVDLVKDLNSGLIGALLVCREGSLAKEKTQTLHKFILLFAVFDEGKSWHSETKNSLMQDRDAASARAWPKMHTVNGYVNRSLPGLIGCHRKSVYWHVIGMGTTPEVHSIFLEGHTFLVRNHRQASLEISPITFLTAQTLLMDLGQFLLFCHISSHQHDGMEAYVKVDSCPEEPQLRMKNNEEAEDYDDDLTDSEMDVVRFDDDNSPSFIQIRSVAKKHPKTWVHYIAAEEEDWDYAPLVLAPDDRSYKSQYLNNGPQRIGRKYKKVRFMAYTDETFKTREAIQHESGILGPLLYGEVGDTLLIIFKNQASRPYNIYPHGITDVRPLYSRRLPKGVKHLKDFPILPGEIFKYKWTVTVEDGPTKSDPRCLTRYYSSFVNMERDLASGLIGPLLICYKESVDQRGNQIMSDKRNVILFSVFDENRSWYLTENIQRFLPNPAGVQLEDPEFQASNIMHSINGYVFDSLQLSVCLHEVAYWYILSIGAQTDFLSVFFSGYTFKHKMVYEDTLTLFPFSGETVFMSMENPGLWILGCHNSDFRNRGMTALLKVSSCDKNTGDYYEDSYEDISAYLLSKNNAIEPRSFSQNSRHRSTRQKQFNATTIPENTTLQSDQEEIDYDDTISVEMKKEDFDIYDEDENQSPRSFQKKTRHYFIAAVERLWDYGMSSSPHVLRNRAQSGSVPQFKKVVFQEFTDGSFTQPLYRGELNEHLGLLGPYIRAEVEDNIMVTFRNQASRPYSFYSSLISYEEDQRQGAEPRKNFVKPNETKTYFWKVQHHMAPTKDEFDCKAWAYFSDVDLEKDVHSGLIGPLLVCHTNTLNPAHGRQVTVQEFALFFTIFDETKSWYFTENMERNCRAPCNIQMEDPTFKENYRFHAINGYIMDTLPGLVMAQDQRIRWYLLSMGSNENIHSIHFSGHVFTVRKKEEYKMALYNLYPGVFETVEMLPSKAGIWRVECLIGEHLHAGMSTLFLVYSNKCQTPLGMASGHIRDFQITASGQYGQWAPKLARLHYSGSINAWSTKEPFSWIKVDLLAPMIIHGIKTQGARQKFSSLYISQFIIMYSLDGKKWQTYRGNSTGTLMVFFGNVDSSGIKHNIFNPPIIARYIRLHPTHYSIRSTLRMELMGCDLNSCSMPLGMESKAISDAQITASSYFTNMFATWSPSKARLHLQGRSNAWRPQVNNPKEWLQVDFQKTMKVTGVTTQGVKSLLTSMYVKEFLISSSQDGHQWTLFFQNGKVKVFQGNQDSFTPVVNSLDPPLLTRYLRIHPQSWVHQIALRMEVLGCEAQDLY

T2: recombinant Factor VIII (CSL627, rVIII-SingleChain) (Homo sapiens (Human), UniProt P00451 20-2351)
T2 construct: also called FVIII
T2 sequence: T1 sequence

B1: Hu-vWF[764-1270]-8His S766Y-R768L (other)
chain: SLYCLPPMVKLVCPADNLRAEGLECTKTCQNYDLECMSMGCVSGCLCPPGMVRHENRCVALERCPCFHQGKEYAPGETVKIGCNTCVCRDRKWNCTDHVCDATCSTIGMAHYLTFDGLKYLFPGECQYVLVQDYCGSNPGTFRILVGNKGCSHPSVKCKKRVTILVEGGEIELFDGEVNVKRPMKDETHFEVVESGRYIILLLGKALSVVWDRHLSISVVLKQTYQEKVCGLCGNFDGIQNNDLTSSNLQVEEDPVDFGNSWKVSSQCADTRKVPLDSSPATCHNNIMKQTMVDSSCRILTSDVFQDCNKLVDPEPYLDVCIYDTCSCESIGDCACFCDTIAAYAHVCAQHGKVVTWRTATLCPQSCEERNLRENGYECEWRYNSCAPACQVTCQHPEPLACPVQCVEGCHAHCPPGKILDELLQTCVDPEDCPVCEVAGRRFASGKKVTLNPSDPEHCQICHCDVVNLTCEACQEPGGLVVPPTDAPVSPTTLYVEDISEPPLHDFHHHHHHHH
B2: Hu-vWF[764-1270]-8His S766Y-R768Y (other)
chain: B1 chain with L5Y
B3: Hu-vWF[764-1270]-8His S766Y-R768I (other)
chain: B1 chain with L5I
B4: Hu-vWF[764-1270]-8His S766Y-R768S (other)
chain: B1 chain with L5S
B5: Hu-vWF[764-1270]-8His S766Y-R768W (other)
chain: B1 chain with L5W
B6: Hu-vWF[764-1270]-8His S766Y-R768K (other)
chain: B1 chain with L5K
B7: Hu-vWF[764-1270]-8His S766Y-R768N (other)
chain: B1 chain with L5N
B8: Hu-vWF[764-1270]-8His S766Y-R768V (other)
chain: B1 chain with L5V
B9: Hu-vWF[764-1270]-8His S766Y-R768T (other)
chain: B1 chain with L5T
B10: Hu-vWF[764-1270]-8His S766Y-R768P (other)
chain: B1 chain with L5P
B11: Hu-vWF[764-1270]-8His S766Y-R768M (other)
chain: B1 chain with L5M
B12: Hu-vWF[764-1270]-8His S766Y-R768Q (other)
chain: B1 chain with L5Q
B13: Hu-vWF[764-1270]-8His S766Y-R768H (other)
chain: B1 chain with L5H
B14: Hu-vWF[764-1270]-8His S764P-K773A (other)
chain: B1 chain with S1P, Y3S, L5R, K10A
B15: Hu-vWF[764-1270]-8His S764P-K773M (other)
chain: B1 chain with S1P, Y3S, L5R, K10M
B16: Hu-vWF[764-1270]-8His S764P-K773L (other)
chain: B1 chain with S1P, Y3S, L5R, K10L
B17: Hu-vWF[764-1270]-8His S764P-K773D (other)
chain: B1 chain with S1P, Y3S, L5R, K10D
B18: Hu-vWF[764-1270]-8His S764P-K773H (other)
chain: B1 chain with S1P, Y3S, L5R, K10H
B19: Hu-vWF[764-1270]-8His S764P-K773G (other)
chain: B1 chain with S1P, Y3S, L5R, K10G
B20: Hu-vWF[764-1270]-8His S764P-K773I (other)
chain: B1 chain with S1P, Y3S, L5R, K10I
B21: Hu-vWF[764-1270]-8His S764P-K773P (other)
chain: B1 chain with S1P, Y3S, L5R, K10P
B22: Hu-vWF[764-1270]-8His S764P-K773F (other)
chain: B1 chain with S1P, Y3S, L5R, K10F
B23: Hu-vWF[764-1270]-8His S764P-K773N (other)
chain: B1 chain with S1P, Y3S, L5R, K10N
B24: Hu-vWF[764-1270]-8His S764P-K773R (other)
chain: B1 chain with S1P, Y3S, L5R, K10R
B25: Hu-vWF[764-1270]-8His S764P-K773Q (other)
chain: B1 chain with S1P, Y3S, L5R, K10Q
B26: Hu-vWF[764-1270]-8His S764P-K773E (other)
chain: B1 chain with S1P, Y3S, L5R, K10E

In the first assay the target is T1, recombinant Factor VIII (CSL627, …). Briefly: SPR, anti-His capture, FVIII injected, 37 C. The essentials: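 First, mutants in culture medium are loaded to 40-150 RU on anti-His-coated chip; next, 1 nM FVIII is passed over for 5 min and washout followed for 5 min; finally, 1:1 fitting of double-referenced data gives rate constants.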
Turning to B1, the Kd was 0.129 nM, the koff came out at 0.000548 s⁻¹ and the kon was 4.24e+06 M⁻¹ s⁻¹.
As for B2, the Kd was 0.277 nM, the koff turned out to be 0.00187 s⁻¹ and the kon was found to be 6.74e+06 M⁻¹ s⁻¹.
The like results for B3 were, in that order, 0.179 nM, 0.000899 s⁻¹ and 5.03e+06 M⁻¹ s⁻¹.
For the molecule B4, the Kd was determined as 0.243 nM, the koff came out at 0.00129 s⁻¹ and the kon was 5.33e+06 M⁻¹ s⁻¹.
The like results for B5 were, in that order, 0.213 nM, 0.00094 s⁻¹ and 4.42e+06 M⁻¹ s⁻¹.
The like results for B6 were, in that order, 0.109 nM, 0.000417 s⁻¹ and 3.83e+06 M⁻¹ s⁻¹.
Consider B7, for which the Kd came to 0.191 nM, the koff was 0.000798 s⁻¹ and the kon worked out at 4.18e+06 M⁻¹ s⁻¹.
The like results for B8 were, in that order, 0.203 nM, 0.000918 s⁻¹ and 4.51e+06 M⁻¹ s⁻¹.
Taken in the same sequence, the figures for B9 were 0.256 nM, 0.00143 s⁻¹ and 5.59e+06 M⁻¹ s⁻¹.
The like results for B10 were, in that order, 0.213 nM, 0.00143 s⁻¹ and 6.71e+06 M⁻¹ s⁻¹.
In the case of B11, the Kd turned out to be 0.196 nM, the koff came to 0.000801 s⁻¹ and the kon was determined as 4.08e+06 M⁻¹ s⁻¹.
On to B12, for which the Kd is 0.174 nM, the koff is 0.000606 s⁻¹ and the kon came to 3.48e+06 M⁻¹ s⁻¹.
As for B13, the Kd came out at 0.172 nM, the koff was found to be 0.00069 s⁻¹ and the kon came out at 4.02e+06 M⁻¹ s⁻¹.

The target of a further assay is T2, recombinant Factor VIII (CSL627, …). Nature of the assay: SPR, anti-His capture. Here is the method:
Binding kinetics were investigated by surface plasmon resonance using a Biacore 4000 biosensor at 37° C. Each mutant was captured from cell culture medium to a density of 40-150 RU on a CM-5 sensor chip pre-immobilised with anti-His antibody (14,000 RU). In an initial screening study, FVIII was injected over the captured mutants for 5 minutes at 1 nM and dissociation monitored for 5 minutes.
All sensorgrams were double referenced by subtraction of signals from a reference spot (containing only immobilised anti His antibody) and from a blank injection. Binding kinetics were determined by fitting the double referenced sensorgrams to a 1:1 kinetic model.
In general terms: SPR reads the build-up and loss of mass on a sensor chip optically.
Consider B14, for which the Kd worked out at 0.0297 nM, the koff turned out to be 0.000189 s⁻¹ and the kon amounted to 6.37e+06 M⁻¹ s⁻¹.
Regarding B15, the Kd is 0.0108 nM, the koff was 0.00017 s⁻¹ and the kon is 1.58e+07 M⁻¹ s⁻¹.
The like results for B16 were, in that order, 1.24 nM, 0.000572 s⁻¹ and 460000 M⁻¹ s⁻¹.
The like results for B17 were, in that order, 0.136 nM, 0.0024 s⁻¹ and 1.77e+07 M⁻¹ s⁻¹.
Taken in the same sequence, the figures for B18 were 0.0386 nM, 0.000636 s⁻¹ and 1.65e+07 M⁻¹ s⁻¹.
Turning to B19, the Kd came out at 0.0436 nM, the koff was 0.000762 s⁻¹ and the kon came to 1.75e+07 M⁻¹ s⁻¹.
Turning to B20, the Kd was determined as 0.00943 nM, the koff was 0.000169 s⁻¹ and the kon amounted to 1.79e+07 M⁻¹ s⁻¹.
Taken in the same sequence, the figures for B21 were 0.0222 nM, 0.000501 s⁻¹ and 2.26e+07 M⁻¹ s⁻¹.
Taken in the same sequence, the figures for B22 were 0.121 nM, 0.00123 s⁻¹ and 1.02e+07 M⁻¹ s⁻¹.
Take B23: the Kd worked out at 0.0631 nM, the koff is 0.000347 s⁻¹ and the kon came to 5.5e+06 M⁻¹ s⁻¹.
Taken in the same sequence, the figures for B24 were 0.0116 nM, 7.42e-05 s⁻¹ and 6.39e+06 M⁻¹ s⁻¹.
The like results for B25 were, in that order, 0.0288 nM, 0.000128 s⁻¹ and 4.44e+06 M⁻¹ s⁻¹.
On to B26, for which the Kd came out at 0.0765 nM, the koff was 0.00515 s⁻¹ and the kon was 6.73e+07 M⁻¹ s⁻¹.

As usually defined, the Kd is the constant that tells how readily two partners part at equilibrium. The term koff denotes the first-order rate constant of dissociation. A word on the kon: it is a measure of how fast the partners come together.
